Literature values as cited in paper PMC2934757.

Target: IGF-1 (Homo sapiens) (UniProt P05019)
Sequence of UniProt P05019 (P05019 49-118): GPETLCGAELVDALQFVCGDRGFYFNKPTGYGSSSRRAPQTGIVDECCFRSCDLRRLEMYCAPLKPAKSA

## IGFBP-2 1-248 (from UniProt P18065)
  Kd: 7 nM
